Assay results taken from article PMC4877050.

Target: wild-type Bcl-xL (mouse full-length, adenovirus-expressed) (mouse) (UniProt Q64373)
Assay: native gel or EMSA; Blue Native PAGE (4-16% Bis-Tris) of the mitochondrial fraction of adenovirus-transduced TKPTS cells, extracted with 1% n-dodecyl-β-D-maltoside; blots probed for Bcl-xL, then Bax

## wild-type Bcl-xL (mouse full-length, adenovirus-expressed) (from UniProt Q64373-1 1-233) (natural protein)
  stoichiometry N: 2
